Measured values as given in US6013258A, “Immunogenic peptides from the HPV E7 protein” (priority 1997, dated 2000).

Biological target: T1, recombinant HLA-A2 (Homo sapiens, UniProt P04439, D140Y/D185E/D98H/E176V/E277Q/G131W/G231S/I119V/I121R/I166T/I218V/N151K/N90K/P208A/P217A/Q86G/Q94H/R138H/R169H)
T1 construct: made in house; host or cells: E. coli
Assay type: binding
Settings: peptide-HLA-A2 complex, monitored by circular dichroism

Q: How did the “Tm (temperature at which 50% of the refolded complexes are melted)” value turn out when “A2.2: peptide derived from HPV strain 16 E7 protein, SEQ ID NO:17 (YMLDLQPET) [Peptide A2.2]” was run?
A: Its value is 52.5 degrees Celsius.
